We go through two substances from paper doi:10.1101/557611.

For assay [1], the target named is microtubules (without MAP7). Put plainly: single-molecule TIRF microscopy.
Assay [2] addresses MAP7-decorated microtubules (mammalian MAP7) (UniProt O88735). Kind of assay: optical trapping.
The target in assay [3] is microtubules (without MAP7). Put plainly: optical trapping.

Turning to “MAP7 (ensconsin, E-MAP-115), mammalian, with N-terminal FLAG and SNAP-tags (from UniProt O88735 1-730) (natural protein)”, the mean dwell time in assay [1] is 114 s.
In assay [2], “dynein on isolated phagosomes (teams of dynein motors) (complex)” gave an increase of the relative binding rate against microtubules without MAP7 of 10% and an unbinding rate at zero load of 0.0207 s⁻¹. For the same substance, the unbinding rate at zero load in assay [3] worked out at 0.0237 s⁻¹.
